Test: soluble fraction after stress (log2 fold change); higher = more stays soluble; pooled small domains, quantitative proteomics
Conditions: stress: 75 degC
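Note: 20 min heating vs room temperature control held 20 min.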

Point of comparison: “HMADASVTAYFKIAEDRLQGRLPDTFSEASLKARYQLTPAQLTAVLTRIAQEGWAERKPGYGWAFSSML”, “soluble fraction (log2)” value -1.62. Against it:
- HMAAEGARNNSLFNSLRERALEVSSHNELEQIAFKMNETNIPPLRASEVISVVNSVWKNRISNQIIP — higher, 0.266
- HMAAFGDLLSELRRDMNMTQDELAKVLFVSPGTISNYENNIHFPDVPKLKQIAQYFGVTTDYLLG — higher, -0.519
- HMAAINTYQVRKIYAIAGALGMKSRDGDDALHDLVFGMTGKQHISGLTSAEAYDVIAELEKKQ — within 0.2 log units, -1.6
- HMAALKVAVLTVSDTRTQETDTSGAFLEGALREAGHEIADRQIVIDDVYQLRAIVSQWIADPEVEVILT — higher, -0.121
- HMAALTADEAKQIALKHAGVAESDVQRLKVEQDRDDGRLLYEVEWDVGRTEYSYEIDANTGDILNYEKDV — higher, -0.000944
- HMAANKIDEDRNTELLQVIQNKFPDADAATKKSVKEIMKEHDIPNFKNADDIPTAVLEQIVKVLNQ — higher, -0.378
- HMAAPLTDRETEVLTLLARGLINKQIAEELHIGLTTVITHRRNIMEKLRVRSLAELILRAVAAGYVDAGR — within 0.2 log units, -1.79
- HMAARKDLIAGEDAEGRLDAWLAAALDGEFSRNRVKALIEQGAVAINDVAVTEPKRKIRPGDRLSIVLPEP — higher, 0.325
- HMAARLMRALIPYAQGGLLAKLHEDGQVLSEEYTGEGIEVKALADEQLFGRLTVQLGEQAVSWQD — higher, -0.163
- HMAASTPGTVTGSVVNVRPDPSTNNDRIGVIYQGTKVEILAQVGEWYNIQFGPVSGWVHKDYISTGA — higher, -0.421
- HMAATISPEIQAEAEKAAALGVESIKNFMASLKEKNPEQHALFSDSEKRRLYAIARKADLNTTQQG — higher, 0.595
- HMAAVPQPQRSETIVYIGGRKFYVHTVQAGETLYSIARLYGVSEQTLVANNPTMADVVKADQNVRIPVPA — lower, -1.96
- HMAAYRLIPLGNSNKDFETYQEAIQYMRDKLDESSKAFEEGKQNWVYSGRVYGVPWSDGRTTFTVDLVPKV — higher, 0.594
- HMADEIMYPVQVNGKVRAEIFVAADQSKNKELVLEMAKSEERVQKYLEEGNLIKEIFVPGRIVNLVI — higher, 0.162
- HMADEIQIGLQKAIQSLPEKQKLVFSMRYYDEIPYDEMSKILDMSVGTLKTNYHYAKQKIEDFLQNH — higher, -1.22
- HMADFIGMNATVTERIFPQGFGRISFVYEGNSISEPARSEDGKEIPTGTSVVVLEVRDKVYIVQPL — lower, -2.35
- HMADGDIIPEGQRDATLASLAGSMRARGMTEAEILAALQVTNETRVRPPMALADLERIARSIGRYEPGK — higher, 0.0569
- HMADKGTITNQQEKILKALILFPEGASIEEIQKAADLGIDKRQFQRRLNTLIESGQINRTGKSRGTKYHTI — higher, 0.201
- HMADLKVGFVHRAGSVLERELDDVLEALEMYRSALAIDPSHKPSLDALTRISQLADYREQAAEILEPLPR — higher, -0.767
- HMADLNFHQQIRSLPPEQQEILLLRFGQELTLRQIAQVTGVPLRTVQSRLRAALKKLKSQLEKEE — higher, -0.696
- HMADLPQATALADVKGDVQMQGIQFGYDPEKIIIHDLNLHARPGSLVAIVGPTGAGKTTIINLLMRFYD — within 0.2 log units, -1.75
- HMADLVYLRKRLQDAIAQLPEDMRTAYTLFQIARRSIREIAELTGASESLVKVRIHRAKGKLQELLEDLR — lower, -2.57
- HMADPAVLIAELFRAMPEKRFSVKNLISATGAETREQKDYVREVVHSLSREGMIEQVAEGKYRLSASE — higher, 0.299
- HMADQVLVMTRAVGQGDIVRNADIGLTSVAVDRAVATIPASQLDKIVGRHALVDLSPGQLLGSHSVGE — higher, 0.147
- HMADRDKYIIMGQQLLRAAFEHFGKKATDKALENAANKLRISDVPELYARLGSAELQPRDVINVIFPD — higher, -0.308
- HMADRLITLSEVASLLRVSRHTVQAWISPSSPNHRPEFAIMARHAGRRTVFIEAEVTAWLDQRRG — lower, -2.14
- HMADVSPEAQHKMVEAFAQFGVTKEHIEQRIQRRLDAIQPAQMVTLKRIFASLRDGMSTPAEWFE — higher, -0.639
- HMADYSGYLGKKGKVIAPLRPAGTALIDGERVDVVSFGDYIDKDSEIEVVKIEGSKLLVKKY — higher, 0.28
- HMAEAIVMSTAAPVKSSPDPQSKDIFVLHEGTKVAVGDSLGDWREIRIADGNKGWVLVSAIEMI — higher, 0.0397
- HMAEDGNMTFEEYAKRWLARQVRYAPSTLESYRRMLGRVYPFIGAIPINRLRPIALENLLAELRKRT — higher, -0.582
- HMAEEFESMTEARRLELARLVDSRGFVRVTDAAEELGVSDVTIRGDLSELERRGLLTRVHGGAMPVT — higher, -0.00431
- HMAEKEYYYATDALNLRQGPGMEHTVKGEVVLGERVALLGLEGKWAKIQNAQGTTGYVFSAYLAPS — higher, -0.196
- HMAEMLENQLKHAKSKQEANEYIAAAIGGVSDDDPDKEYLVAAYNEISKEFHHSSAYHRLPDT — higher, 0.16
- HMAEMRYLDQIYEVNVPLPDLSLEDGDLLARWAVNFHQRYEELFSYRQSDQEIRLVTLRVTVLGELP — higher, -0.65
- HMAENMNAALRVSSLINQIGTVNAKAKDRIESARKAYDALSEAQKAYVANLTTLETAETSLSKL — higher, 0.0786
- HMAENTIPSVIGKTLSDATFLLESYGYERGGVSEEYSEMPKGVVIRQSPQAGSSADPGTKVNLVVSLGEEI — higher, 0.538
- HMAENTKKWDETGRRYRSYIKLEKRLSENTVESYMRDYMQFAHFILRQWDVAPHKVEPQMVERYMAWLYER — higher, -0.795
- HMAEPIAAGKYTVSTSGSVLNMRVSPDADSQVLEKIPNGTIVEVTKSVLGWAYVTYNSAQGWVSSAYLV — the same, -1.62
- HMAEPLMTQIVEIEYADAEGLRENLEQFLTRLDEKTLLGSVLVDRHTNSLIIQAVRSDLERMLPLIETLDR — higher, -0.804
- HMAEPLYKQVKNKIIQNLTSDEWKPGSVIPSETKLAETYGVGVSTIRMAIGELVAARILIRRQGKGTFVSS — lower, -2.1
- HMAEQDILQSVYPHIGGQDNVSRTISRNGTLYLMLKDASAVDLKAVKQVPGIADAALERGRLTLQLEE — higher, -0.203
- HMAEQLGNSRTANMVMLGAMIERTGVISIDSAMEALKATFGPKKEHLLPINRQAMEAGAAAARAV — higher, 0.104
- HMAERVWASLLEIKNAVAIEDAKTLEDVDNSEKIAEERIAALNDDAKHPLAIAFIGKLRQDIAEKKIELA — higher, 0.413
- HMAESSPYTVRPGDTLWKILAQTQNARYNDFPYLYRKFRELNPNITDLNHIVSGQKIIVPHIPG — higher, -0.331
- HMAESTRSRILNAAIEMMETGGESSVRLSAIAEALGIKEPSIYHHFTNRTELVNAAYIEWYW — higher, -1.07
- HMAEVDREEALRIALAHAAVARRDVRNLKIERGEENGVPVYKVEFETAFGDFDVAVSRRSGDVVDAD — higher, -0.0382
- HMAEVIYGAGKTPAQMLGILRTMQAHGQKTVLITRLREEAAEEIGREIPLQYDKTAGVGIVGTLPQPDG — higher, -0.102
- HMAEVPSLIGKSLDAAKQAIIDAGFKVGSVSYDNSDSYGKGQVMWQQYEPSTKVKKGSSISIKVSKGS — higher, -0.00107
- HMAEVRTLLVPIELAGMRFDQVLAELLPEFSRSRLAAWIKSGDALLDGHDAKPKGVVRGGEQIEIRLA — higher, -0.0127
- HMAFAVWVKLVAIGPNYAQLEIEQGTQRNVRTLRPGDDAPEGVRLLSLTPTHAEVQANGIARKLALGQGMA — lower, -3.22
- HMAFDESLVRSIQELLSELGYSPGKIDGLLGAKTVAAIKAFELEINKDQLTGEPSEELLIALQLAIRSSKM — within 0.2 log units, -1.81
- HMAFDGIVLKNITNALKELINGKINKIQQSSKDNLTLSIYNQKSYNLYIDISANNYRVNLTTHSE — higher, 0.126
- HMAFDYETYQLTSREFSIIELVADGRSNREIAEALYLGEGTVRNYLSSILEKLELRDRTQLAVFFYQHL — lower, -2.3
- HMAFIEIMTEGDADGRGFQYPIPTYSITRDFDWSETENNKLLFEMTAKYGTPYFSNYINSDMEPSDV — higher, -1.13
- HMAGAITEREVEVLELLSRGLGNKEIAKELFVSEATVKSHLSHIYTKLAVDTRAGAVAAAIERRIIRAWR — lower, -2.99
- HMAGASQAVKAQLRLREMILAGELPGGARIAELTLVEKLGVSRTPIRAALMRLEQEGLLHRLPGGGYAVRT — lower, -2.27
- HMAGDDEIEKIAQDILAAWPDKVAAYQAGNKGLMGLFMGELMKKSQGKANPKVASGIIQKLLD — higher, 0.0201
- HMAGEDPANLELMRLMDEEYMEHPTKGVLGMVDFLRALGILTGPKRVRRLLRKMGIMAIYPK — higher, 0.159
- HMAGGVFELTGKVTADAKAGDLVYVKAATGAGTKPVVTTVKTGADVIIGWLKEPVSSASVDQKMQVVLA — higher, 0.267
- HMAGITLHAEEGRVRIRSQSEGLVKVLDAMGREQASWPLRSKGWWFFLTEGWAPGTYFVKTESGETQRFLV — higher, 0.274
- HMAGNNTATKEIAELLIAKGADVNAMNLSPPGREIGGMTPLDMAILGNRNEIADLLRKHGGRTQKELKAE — higher, 0.262
- HMAGPGAEVVDRLIAVLTGERPATAADQVLLSILKGLGIGGVVLPSERTGLGWSGLYQRVKEITDMN — within 0.2 log units, -1.61
- HMAGPRRRLLDAAIDRAAERGLGDLSLRALAEELGTSHRMLSHHFGSKDGLWLAIVEEVERRQ — higher, -1.08
- HMAGSTAASKHALALLNTARHSIRDGNLTSAAAEIKQALATSQEQIVITEARSLMTAMEARATTRRATVLQ — higher, -0.41
- HMAGTAMRATTAVNVRSGAGTNYSRIGLLQAGEQIQALSSKNGWTQVSYKGRTGYVASAYLASL — lower, -2.57
- HMAGTGKVNTGVANVRSGPGTNYEISGKIYADTEVSILETSNGWYKIKFGNLTGWMSGTVLDIK — higher, -0.902
- HMAGTPAVVKWFNPTKGFGFVTPREAGSDALLHASVLAKQGKRWLQEGTVVEVVLEEGPKGLVVSEVLTIE — higher, -0.457
- HMAGWMPGGTNPAEPGRFAVLMDVDDSDAYKHMFLRWNGHAWEFERTRVLVKMEPSWWMRLPDDPEKP — lower, -3.16
- HMAHKRVDGTIVTPLTADTIVLRTGTHGEQPFEIRDTTRHKLESLQKGDMVILLIDTDNKVIDVAIPP — higher, 0.373

Source: the domain aggregation screens of Martell et al. (2025)
